{"source": "patent EP3370777B1", "target": "His-tagged eukaryotic Elongation Factor 2 (eEF2) expressed in S. cerevisiae", "test": "cell-based or functional assay"}
{"substance": "recombinant Exotoxin A (SEQ ID NO: 4), expressed in E. coli NiCo21(DE3) as His-tagged SUMO fusion, SUMO-tag removed (enzyme)", "values": [{"measurement": "ADP-ribosylation activity EC50 [µg/µl] (Example 1, soluble fraction)", "result": 0.6, "unit": "µg/µL"}, {"measurement": "ADP-ribosylation activity EC50 [µg/µl] (Example 2, method of the invention)", "result": 0.52, "unit": "µg/µL"}]}
